Reference: patent publication US20210070881A1 (DENALI THERAPEUTICS, published 2021)
Residue numbers refer to the chain shown, from its start.

B1: 2H8.31 (antibody, human IgG1, V domains shown)
VH: EVQLQQSGPELVKPGASVKLSCKASGYTFTNFWIHWLKQRPGQGLEWIGMIDPSDSYTKYNQKFKAKATLTVDTSSSTTYMHLSSLTSEDSAVYYCARSGVAFPYWGQRTLVTVSA
VL: DIQMTQSQKFMSKSVGDRVSVTCKASQNVGSNVAWYQQKSGQSPKSLIYSASHRYSGVPDRFTGSGSGTDFTLTISNVQSEDLADYFCQQYNSYPYTFGGGTRLEIK
notes: human IgG1/kappa; also called 2H8_HC + 2H8_LCvar6
B2: 2H8.39 (antibody, human IgG1, V domains shown)
VH: B1 VH with P9A, K13R, A16T, N31S, F32Y, L37V, A66D
VL: B1 VL with Q3L, K13T, S31R, K39I, S46P, A84V, D85E, Y86F, R103K
notes: human IgG1/kappa; also called 2H8_HCvar3 + 2H8_LCvar7
B3: 2H8.04 (antibody, human IgG1, V domains shown)
VH: EIQLQQSGTELVRPGTSVKLSCKASGYTFTNYWMHWVKQRPGQGLEWIGMIDPSAAYTNYNQNFKGKATLTVDTSSGTAYMQLSSLTSEDSAVYYCARSGVAFPYWGQGTTVTVSS
VL: B1 VL with Q3V, R18T, N28D, S31R
notes: human IgG1/kappa; also called 2H8_HCvar4 + 2H8_LC
B4: 2H8.41 (antibody, human IgG1, V domains shown)
VH: EVQLQQPGAEVVRPGTSVKLSCKASGYTFTNYWMHWVKQRPGQGLEWIGMIDPSDNYTKYNQKLKGKATLTVDTSSSTANMHVNSLTSEDSAVYFCARSGVAFPYWGQGTLVTVSA
VL: B1 VL with Q3L, K13T, S31R, K39I, S46P, A84V, D85E, Y86F, R103K
notes: human IgG1/kappa; also called 2H8_HCvar5 + 2H8_LCvar7
B5: 2H8.37 (antibody, human IgG1, V domains shown)
VH: B1 VH
VL: B1 VL with Q3L, K13T, S31R, K39I, S46P, A84V, D85E, Y86F, R103K
notes: human IgG1/kappa; also called 2H8_HC + 2H8_LCvar7
B6: 2H8.02 (antibody, human IgG1, V domains shown)
VH: B3 VH with I2V, S7P, V37I, A55D, A56T, N59K, Y60F, G77S, S84N
VL: B1 VL with Q3V, R18T, N28D, S31R
notes: human IgG1/kappa; also called 2H8_HCvar2 + 2H8_LC
B7: 2H8.35 (antibody, human IgG1, V domains shown)
VH: B4 VH
VL: B1 VL
notes: human IgG1/kappa; also called 2H8_HCvar5 + 2H8_LCvar6
B8: 2H8.42 (antibody, human IgG1, V domains shown)
VH: EVQLQQSGAELVRPGTSVKLSCKASGYTFNNYWMHWVKQRPGQGLEWIGMIDPSDDDIKNNQKFKGKATLTVDTSSSTAYMQLISLTSEDSAVYYCARSGVALPYWGQGTLVTVSA
VL: B1 VL with Q3L, K13T, S31R, K39I, S46P, A84V, D85E, Y86F, R103K
notes: human IgG1/kappa; also called 2H8_HCvar6 + 2H8_LCvar7
B9: 2H8.05 (antibody, human IgG1, V domains shown)
VH: B4 VH
VL: B1 VL with Q3V, R18T, N28D, S31R
notes: human IgG1/kappa; also called 2H8_HCvar5 + 2H8_LC
B10: 2H8.32 (antibody, human IgG1, V domains shown)
VH: B3 VH with I2V, S7P, V37I, A55D, A56T, N59K, Y60F, G77S, S84N
VL: B1 VL
notes: human IgG1/kappa; also called 2H8_HCvar2 + 2H8_LCvar6
B11: hu2H8v4 (antibody, V domains shown)
VH: QVQLVQSGAEVKKPGASVKVSCKASGYTFTNFWIHWVRQAPGQGLEWMGMIDPSDSYTKYNQKFKARATLTRDTSTSTVYMELSSLRSEDTAVYYCARSGVAFPYWGQGTLVTVSS
VL: DIQMTQSPSSLSASVGDRVTITCKASQDVGRNVAWYQQKPGKAPKLLIYSASHRYSGVPSRFSGSGSGTDFTLTISSLQPEDFATYYCQQYNSYPYTFGQGTKVEIK
notes: humanized; also called hu2H8_HC5 + hu2H8_LC1
B12: hu2H8v19 (antibody, V domains shown)
VH: B11 VH with A68V, L70M, V79T
VL: B11 VL with A43S, L46S
notes: humanized; also called hu2H8_HC1 + hu2H8_LC4
B13: hu2H8v16 (antibody, V domains shown)
VH: B11 VH
VL: B11 VL with L46S
notes: humanized; also called hu2H8_HC5 + hu2H8_LC3
B14: hu2H8v7 (antibody, V domains shown)
VH: B11 VH with A68V, L70M, V79T
VL: B11 VL with A43S
notes: humanized; also called hu2H8_HC1 + hu2H8_LC2
B15: hu2H8v15 (antibody, V domains shown)
VH: B11 VH with V37L, A68V, L70M, R72V, V79T
VL: B11 VL with L46S
notes: humanized; also called hu2H8_HC3 + hu2H8_LC3
B16: hu2H8v28 (antibody, V domains shown)
VH: B11 VH
VL: B11 VL with A43S, L46S, Y87F
notes: humanized; also called hu2H8_HC5 + hu2H8_LC5
B17: hu2H8v6 (antibody, V domains shown)
VH: B11 VH with V37L, R72V, V79T
VL: B11 VL
notes: humanized; also called hu2H8_HC7 + hu2H8_LC1
B18: hu2H8v10 (antibody, V domains shown)
VH: B11 VH
VL: B11 VL with A43S
notes: humanized
B19: hu2H8v14 (antibody, V domains shown)
VH: B11 VH with V37L, A68V, L70M, V79T
VL: B11 VL with L46S
notes: humanized; also called hu2H8_HC2 + hu2H8_LC3
B20: hu2H8v23 (antibody, V domains shown)
VH: B11 VH with R72V
VL: B11 VL with A43S, L46S
notes: humanized; also called hu2H8_HC6 + hu2H8_LC4
B21: hu2H8v21 (antibody, V domains shown)
VH: B11 VH with V37L, A68V, L70M, R72V, V79T
VL: B11 VL with A43S, L46S
notes: humanized; also called hu2H8_HC3 + hu2H8_LC4
B22: hu2H8v26 (antibody, V domains shown)
VH: B11 VH with V37L, A68V, L70M, V79T
VL: B11 VL with A43S, L46S, Y87F
notes: humanized; also called hu2H8_HC2 + hu2H8_LC5
B23: hu2H8v12 (antibody, V domains shown)
VH: B11 VH with V37L, R72V, V79T
VL: B11 VL with A43S
notes: humanized; also called hu2H8_HC7 + hu2H8_LC2
B24: hu2H8v24 (antibody, V domains shown)
VH: B11 VH with V37L, R72V, V79T
VL: B11 VL with A43S, L46S
notes: humanized; also called hu2H8_HC7 + hu2H8_LC4
B25: hu2H8v25 (antibody, V domains shown)
VH: B11 VH with A68V, L70M, V79T
VL: B11 VL with A43S, L46S, Y87F
notes: humanized; also called hu2H8_HC1 + hu2H8_LC5
B26: hu2H8v18 (antibody, V domains shown)
VH: B11 VH with V37L, R72V, V79T
VL: B11 VL with L46S
notes: humanized; also called hu2H8_HC7 + hu2H8_LC3
B27: hu2H8v13 (antibody, V domains shown)
VH: B11 VH with A68V, L70M, V79T
VL: B11 VL with L46S
notes: humanized; also called hu2H8_HC1 + hu2H8_LC3
B28: hu2H8v5 (antibody, V domains shown)
VH: B11 VH with R72V
VL: B11 VL
notes: humanized; also called hu2H8_HC6 + hu2H8_LC1
B29: hu2H8v9 (antibody, V domains shown)
VH: B11 VH with V37L, A68V, L70M, R72V, V79T
VL: B11 VL with A43S
notes: humanized; also called hu2H8_HC3 + hu2H8_LC2
B30: hu2H8v8 (antibody, V domains shown)
VH: B11 VH with V37L, A68V, L70M, V79T
VL: B11 VL with A43S
notes: humanized; also called hu2H8_HC2 + hu2H8_LC2
B31: hu2H8v11 (antibody, V domains shown)
VH: B11 VH with R72V
VL: B11 VL with A43S
notes: humanized; also called hu2H8_HC6 + hu2H8_LC2
B32: hu2H8v30 (antibody, V domains shown)
VH: B11 VH with V37L, R72V, V79T
VL: B11 VL with A43S, L46S, Y87F
notes: humanized; also called hu2H8_HC7 + hu2H8_LC5
B33: hu2H8v22 (antibody, V domains shown)
VH: B11 VH
VL: B11 VL with A43S, L46S
notes: humanized; also called hu2H8_HC5 + hu2H8_LC4
B34: hu2H8v20 (antibody, V domains shown)
VH: B11 VH with V37L, A68V, L70M, V79T
VL: B11 VL with A43S, L46S
notes: humanized; also called hu2H8_HC2 + hu2H8_LC4
B35: hu2H8v29.12 (antibody, V domains shown)
VH: B11 VH with T30N, R72V
VL: B11 VL with A43S, L46S, Y87F
notes: captured via human Fc; also called hu2H8_LC5 + hu2H8_HC6.1

The binders below were run against T1, recombinant BACE1 (BACE1 extracellular domain, R&D Systems Cat#931-AS) (UniProt P56817 22-457) (assay: SPR Biacore).
T1 construct: extracellular domain; also called BACE1 extracellular domain protein
T1 sequence (P56817 22-457): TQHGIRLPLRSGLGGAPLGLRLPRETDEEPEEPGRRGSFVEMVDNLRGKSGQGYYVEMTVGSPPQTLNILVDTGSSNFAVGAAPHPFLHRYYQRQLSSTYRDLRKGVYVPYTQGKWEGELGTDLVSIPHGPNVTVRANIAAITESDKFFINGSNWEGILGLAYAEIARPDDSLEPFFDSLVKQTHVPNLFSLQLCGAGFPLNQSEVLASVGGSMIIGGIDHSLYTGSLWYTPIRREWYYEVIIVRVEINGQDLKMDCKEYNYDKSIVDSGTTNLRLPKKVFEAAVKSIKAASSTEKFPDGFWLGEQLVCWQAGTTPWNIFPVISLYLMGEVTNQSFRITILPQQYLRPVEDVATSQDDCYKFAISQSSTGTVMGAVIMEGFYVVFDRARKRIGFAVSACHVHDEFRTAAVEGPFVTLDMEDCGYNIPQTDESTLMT

Row | Kd [nM] | koff [s⁻¹] | kon [M⁻¹ s⁻¹] | Binder
1 | 11.1 | 0.000168 | 15200 | B1
2 | 13 | 0.000217 | 16600 | B2
3 | 15.6 | 0.000362 | 23300 | B3
4 | 10.7 | 0.000197 | 18500 | B4
5 | 16.4 | 0.000331 | 20200 | B5
6 | 13.1 | 0.000265 | 20200 | B6
7 | 15.2 | 0.000171 | 11200 | B7
8 | 11.6 | 0.000221 | 19000 | B8
9 | 13.7 | 0.000251 | 18300 | B9
10 | 11.4 | 0.000172 | 15100 | B10

Target: T1, recombinant BACE1 (BACE1 extracellular …)
Assay: SPR Biacore
Remark: another data set of the same source

Row | Kd [nM] | Binder
11 | 169 | B11
12 | 17.4 | B12
13 | 25.6 | B13
14 | 150 | B14
15 | 16.4 | B15
16 | 19.5 | B16
17 | 109 | B17
18 | 160 | B18
19 | 17.7 | B19
20 | 28 | B20
21 | 13.5 | B21
22 | 16.3 | B22
23 | 171 | B23
24 | 74 | B24
25 | 22.1 | B25
26 | 20.7 | B26
27 | 22.8 | B27
28 | 96.3 | B28
29 | 130 | B29
30 | 155 | B30
31 | 88.3 | B31
32 | 23.7 | B32
33 | 21.9 | B33
34 | 13.2 | B34

These binders were tested against cellular BACE1 in CHOK1-huAPP cells (assay: cell-based or functional assay).

Row | IC50 [nM] | Max. % inhibition [%] | Binder
35 | 33 | 94 | B1
36 | 43 | 86 | B2
37 | 26 | 82 | B3
38 | 36 | 86 | B4
39 | 32 | 93 | B5
40 | 42 | 81 | B6
41 | 41 | 85 | B7
42 | 53 | 97 | B8
43 | 44 | 87 | B9
44 | 61 | 86 | B10

Each binder was assayed against T1, recombinant BACE1 (BACE1 extracellular …) (assay: SPR Biacore 8K, antibody captured, BACE1 analyte).
Protocol: The binding affinities of the affinity matured humanized 2H8 variants for BACE1 were determined by surface plasmon resonance using a Biacore™ 8K instrument. […] The binding was monitored for 300 seconds and then dissociation was monitored for 600+ seconds in HBS-EP+ running buffer (GE Healthcare Life Sciences, BR100669). Binding response was corrected by subtracting the RU from a blank flow cell. A 1:1 Langmuir model of simultaneous fitting of kₒₙ and koff was used for kinetics analysis.

Row | Kd [nM] | Binder
45 | 8.42 | B35
